Experimental data from PMC3057501 (Molecular cell, 2011).

Target: the molecule itself
Experiment: SEC-MALS

B1: human PAPD1 (residues 44-538), wild type (enzyme, UniProt Q9NVV4 44-538, looked up)
chain: EQPSGSVETGFEDKIPKRRFSEMQNERREQAQRTVLIHCPEKISENKFLKYLSQFGPINNHFFYESFGLYAVVEFCQKESIGSLQNGTHTPSTAMETAIPFRSRFFNLKLKNQTSERSRVRSSNQLPRSNKQLFELLCYAESIDDQLNTLLKEFQLTEENTKLRYLTCSLIEDMAAAYFPDCIVRPFGSSVNTFGKLGCDLDMFLDLDETRNLSAHKISGNFLMEFQVKNVPSERIATQKILSVLGECLDHFGPGCVGVQKILNARCPLVRFSHQASGFQCDLTTNNRIALTSSELLYIYGALDSRVRALVFSVRCWARAHSLTSSIPGAWITNFSLTMMVIFFLQRRSPPILPTLDSLKTLADAEDKCVIEGNNCTFVRDLSRIKPSQNTETLELLLKEFFEYFGNFAFDKNSINIRQGREQNKPDSSPLYIQNPFETSLNISKNVSQSQLQKFVDLARESAWILQQEDTDRPSISSNRPWGLVSLLLPSAPNR
In the case of B1, the “stoichiometry N” value is reported as 2.
